Laboratory results: US20120164161A1 (AFFITECH RESEARCH, published 2012)

T1: human CC chemokine receptor 4 (CCR4) (human, UniProt P51679 1-360)
T1 sequence (looked up): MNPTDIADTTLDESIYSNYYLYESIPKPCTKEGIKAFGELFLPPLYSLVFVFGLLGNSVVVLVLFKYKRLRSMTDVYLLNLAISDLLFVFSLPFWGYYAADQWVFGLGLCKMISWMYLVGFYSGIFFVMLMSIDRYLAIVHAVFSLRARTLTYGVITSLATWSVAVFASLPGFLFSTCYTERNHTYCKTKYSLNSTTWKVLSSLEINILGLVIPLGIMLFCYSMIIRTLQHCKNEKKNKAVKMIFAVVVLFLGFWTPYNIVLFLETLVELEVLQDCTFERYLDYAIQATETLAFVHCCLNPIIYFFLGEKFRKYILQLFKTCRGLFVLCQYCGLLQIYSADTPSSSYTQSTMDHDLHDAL


What was measured:
[1] = target: T1, human CC chemokine receptor 4 (CCR4); assay: cell-based or functional assay
[2] = target: T1, human CC chemokine receptor 4 (CCR4); assay: cell-based or functional assay; remark: listed apart in the source
[3] = target: T1, human CC chemokine receptor 4 (CCR4); assay: competition in flow cytometry on CCRF-CEM cells: scFv titrated against 50 nM Alexa647-labelled MDC-SNAP; remaining MDC-SNAP signal (Alexa 647)
Experimental: To determine whether the anti-CCR4 antibodies from Example 1 interfere with the binding of CCR4 ligands to the receptor, competition experiments were performed. […] The SNAP-tag is derived from the 20 kDa DNA repair protein 06-alkylguanine-DNA alkyltransferase.
The CCR4+ CCRF-CEM-cells were harvested from culture flasks, washed 2 times with RPMI-1640 culture medium and aliquot 1×10^5 cells per well into V-shaped 96-well plates (Greiner Bio-One, Frickenhausen, Germany). Cells were centrifuged at 500×g for 5 minutes and the supernatant was aspirated.

Binder	IC50 of inhibition of TARC-mediated Ca-Flux in CCRF-CEM cells [2]	IC50 (read off the curve) [3]	other results
KW0761 IgG (antibody, V domains shown) VH: EVQLVESGGDLVQPGRSLRLSCAASGFIFSNYGMSWVRQAPGKGLEWVATISSASTYSYYPDSVKGRFTISRDNAKNSLYLQMNSLRVEDTALYYCGRHSDGNFAFGYWGQGTLVTVSS VL: DVLMTQSPLSLPVTPGEPASISCRSSRNIVHINGDTYLEWYLQKPGQSPQLLIYKVSNRFSGVPDRFSGSGSGTDFTLKISRVEAEDVGVYYCFQGSLLPWTFGQGTKVEIK			ADCC on CCRF-CEM cells with human PBMCs, EC50 [1]: 315 pM; ADCC on CCRF-CEM cells, Max. Killing (%; nM IgG) [1]: 69.8 % (at 1.4 nM IgG); ADCC on L-428 cells with human PBMCs, EC50 [1]: 57 pM; ADCC on L-428 cells, Max. Killing (%; nM IgG) [1]: 84 % (at 7 nM IgG)
208 scFv (scFv, not shown: small tags and cut ends) scFv: QVQLVQSGAEVKKPGSSVKVSCKASGGTFSSYAMSWVRQAPGQGLEWMGGIIPIFGTVNYAQKFQGRVTMTRDTSTSTVYMELSSLRSDDTAVYYCARRGGSYFDYWGQGTLVTVSSKLSGSASAPKLEEGEFSEARVSYVLTQPPSASGTPGQSVTISCSGSTSNIGSHYVFWYQQLPGTAPRLLIYRNHQRPSGVPDRLSGSKSGTSASLAISGLRSEDEADYYCAVWDAKYRGWVFGGGTKLTVL	1.9 pM		
503 scFv (scFv, not shown: small tags and cut ends, Expressed in TG1 bacteria) scFv: QVQLVQSGAEVKKPGSSVKVSCKASEGTFSSYAMSWVRQAPGQGLEWMGGIIPIFGTVNYAQKFQGRVTMTRDTSTSTVYMELSSLRSDDTAVYYCARRRGAKFDYWGQGTLVTVSSKLSGSASAPKLEEGEFSEARVSYVLTQPPSASGTPGQSVTISCSGSTSNIGSHYVVWYQQLPGTAPRLLIYRNHQRPSGVPDRLSGSKSGTSASLAIGGLRSEDEADYYCAVWDDTLSGWVFGGGTKLTVL	1.2 pM	~300 pM	
306 scFv (scFv, not shown: small tags and cut ends) scFv: QVQLVQSGAEVKKPGSSVKVSCKASGGTFSSYAMSWVRQAPGQGLEWMGGIIPIFGTVNYAQKFQGRVTMTRDTSTSTVYMELSSLRPDDTAVYYCARRGGSYFDYWGQGTLVTVSSKLSGSASAPKLEEGEFSEARVSYVLTQPPSASGTPGQSVTISCSGSTSNIGSHYVSWYQQLPGTAPRLLIYRNHQRPSGVPDRLSGSKSGTSASLAISGLRSEDEADYYCAVWDAKYRGWVFGGGTKLTVL	1.2 pM		
406 scFv (scFv, not shown: small tags and cut ends, Expressed in TG1 bacteria) scFv: QVQLVQSGAEVKKPGSSVKVSCKASEGTFSSYAMSWVRQAPGQGLEWMGGIIPIFGTVNYAQKFQGRVTMTRDTSTSTVYMELSSLRSDDTAVYYCARRGGSYFDYWGQGTLVTVSSKLSGSASAPKLEEGEFSEARVSYVLTQPPSASGTPGQSVTISCSGSTSNIGSHYVSWYQQLPGTAPRLLIYRNHQRPSGVPDRLSGSKSGTSASLAISGLRSEDEADYYCAVWDAKYRGWVFGGGTKLTVL	1 pM	~100 pM	
803 scFv (scFv, not shown: small tags and cut ends, Expressed in TG1 bacteria; also called scFv 803; antibody 803 (single chain form)) scFv: QVQLVQSGAEVKKPGSSVKVSCKASGGTFSSYAISWVRQAPGQGLEWMGGIIPIFGTANYAQKFQGRVTMTRDTSTSTVYMELSSLRSEDTAVYYCARRRGAKFDYWGQGTLVTVSSKLSGSASAPKLEEGEFSEARVSYVLTQPPSASGTPGQSVTISCSGSTSNIGSHYVVWYQQLPGTAPRLLIYRNHQRPSGVPDRLSGSKSGTSASLAIGGLRSEDEADYYCAVWDDTLSGWVFGGGTKLTVL	10 pM	~200 pM	
501 scFv (scFv, not shown: small tags and cut ends, Expressed in TG1 bacteria; also called scFv 501; antibody 501 (single chain form)) scFv: QVQLVQSGAEVKKPGSSVKVSCKASEGTFSSYAMSWVRQAPGQGLEWMGGIIPIFGTVNYAQKFQGRVTMTRDTSTSTVYMELSSLRSDDTAVYYCARRRGAKFDYWGQGTLVTVSSKLSGSASAPKLEEGEFSEARVSYVLTQQPSASGTPGQSVTISCSGSTSNIGSHYVVWYQQLPGTAPRLLIYRNHQRPSGVPDRLSGSKSGTSASLAIGGLRSEDEADYYCAVWDDTLSGWVFGGGTKLTVL	1 pM	~300 pM	
308 scFv (scFv, not shown: small tags and cut ends) scFv: QVQLVQSGAEVKKPGSSVKVSCKASGGTFSSYAMSWVRQAPGQGLEWMGGIIPIFGTVNYAQKFQGRVTMTRDTSTSTVYMELSSLRPDDTAVYYCARRGGSYFDYWGQGTLVTVSSKLSGSASAPKLEEGEFSEARVSYVLTQPPSASGTPGQSVTISCSGSTSNIGSHYVFWYQQLPGTAPRLLIYRNHQRPSGVPDRLSGSKSGTSASLAISGLRSEDEADYYCAVWDAKYRGWVFGGGTKLTVL	3 pM		
601 scFv (scFv, not shown: small tags and cut ends) scFv: QVQLVQSGAEVKKPGSSVKVSCKASGGTFSSYAMSWVRQAPGQGLEWMGGIIPIFGTVNYAQKFQGRVTMTRDTSTSTVYMELSSLRSDDTAVYYCARRRGAKFDYWGQGTLVTVSSKLSGSASAPKLEEGEFSEARVSYVLTQQPSASGTPGQSVTISCSGSTSNIGSHYVVWYQQLPGTAPRLLIYRNHQRPSGVPDRLSGSKSGTSASLAIGGLRSEDEADYYCAVWDDTLSGWVFGGGTKLTV	3 pM		
